B1: Regulator of chromosome condensation (Homo sapiens), P18754 (parent)
chain: MSPKRIAKRRSPPADAIPKSKKVKVSHRSHSTEPGLVLTLGQGDVGQLGLGENVMERKKPALVSIPEDVVQAEAGGMHTVCLSKSGQVYSFGCNDEGALGRDTSVEGSEMVPGKVELQEKVVQVSAGDSHTAALTDDGRVFLWGSFRDNNGVIGLLEPMKKSMVPVQVQLDVPVVKVASGNDHLVMLTADGDLYTLGCGEQGQLGRVPELFANRGGRQGLERLLVPKCVMLKSRGSRGHVRFQDAFCGAYFTFAISHEGHVYGFGLSNYHQLGTPGTESCFIPQNLTSFKNSTKSWVGFSGGQHHTVCMDSEGKAYSLGRAEYGRLGLGEGAEEKSIPTLISRLPAVSSVACGASVGYAVTKDGRVFAWGMGTNYQLGTGQDEDAWSPVEMMGKQLENRVVLSVSSGGQHTVLLVKDKEQS
partner: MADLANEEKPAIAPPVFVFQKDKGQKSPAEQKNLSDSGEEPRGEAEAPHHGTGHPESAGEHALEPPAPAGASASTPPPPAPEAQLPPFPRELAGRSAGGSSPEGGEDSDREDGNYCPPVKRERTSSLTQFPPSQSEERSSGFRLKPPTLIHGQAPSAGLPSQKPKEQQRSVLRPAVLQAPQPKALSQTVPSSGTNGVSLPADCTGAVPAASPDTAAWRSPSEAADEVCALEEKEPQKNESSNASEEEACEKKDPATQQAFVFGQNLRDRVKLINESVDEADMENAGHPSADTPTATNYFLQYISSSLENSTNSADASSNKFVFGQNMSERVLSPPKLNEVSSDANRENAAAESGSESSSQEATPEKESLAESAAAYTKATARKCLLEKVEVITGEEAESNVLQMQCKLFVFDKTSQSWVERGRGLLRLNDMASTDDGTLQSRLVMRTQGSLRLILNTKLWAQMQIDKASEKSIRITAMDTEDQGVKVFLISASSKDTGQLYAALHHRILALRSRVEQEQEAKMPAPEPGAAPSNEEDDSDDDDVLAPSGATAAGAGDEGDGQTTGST

Variants of: B1
Conditions: with ranb3_human RANBP3, Q9H6Z4

Variant | effect of a mutation on the interaction
D182A | disrupting interaction
